IntAct's records for PubMed 31515488

B1: Cyclin-D1-binding protein 1 (Homo sapiens), O95273 (parent)
chain: MASATAPAAAVPTLASPLEQLRHLAEELRLLLPRVRVGEAQETTEEFNREMFWRRLNEAAVTVSREATTLTIVFSQLPLPSPQETQKFCEQVHAAIKAFIAVYYLLPKDQGITLRKLVRGATLDIVDGMAQLMEVLSVTPTQSPENNDLISYNSVWVACQQMPQIPRDNKAAALLMLTKNVDFVKDAHEEMEQAVEECDPYSGLLNDTEENNSDNHNHEDDVLGFPSNQDLYWSEDDQELIIPCLALVRASKACLKKIRMLVAENGKKDQVAQLDDIVDISDEISPSVDDLALSIYPPMCHLTVRINSAKLVSVLKKALEITKASHVTPQPEDSWIPLLINAIDHCMNRIKELTQSELEL
partner: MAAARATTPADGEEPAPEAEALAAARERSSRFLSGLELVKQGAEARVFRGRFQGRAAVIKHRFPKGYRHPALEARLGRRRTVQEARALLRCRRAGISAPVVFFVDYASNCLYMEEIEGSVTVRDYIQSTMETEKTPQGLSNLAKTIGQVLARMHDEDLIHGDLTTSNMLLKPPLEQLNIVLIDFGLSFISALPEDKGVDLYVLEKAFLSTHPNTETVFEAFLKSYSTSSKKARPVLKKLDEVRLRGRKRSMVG
B2: Ribosome quality control complex subunit TCF25 (Homo sapiens), Q9BQ70 (parent)
chain: MSRRALRRLRGEQRGQEPLGPGALHFDLRDDDDAEEEGPKRELGVRRPGGAGKEGVRVNNRFELINIDDLEDDPVVNGERSGCALTDAVAPGNKGRGQRGNTESKTDGDDTETVPSEQSHASGKLRKKKKKQKNKKSSTGEASENGLEDIDRILERIEDSTGLNRPGPAPLSSRKHVLYVEHRHLNPDTELKRYFGARAILGEQRPRQRQRVYPKCTWLTTPKSTWPRYSKPGLSMRLLESKKGLSFFAFEHSEEYQQAQHKFLVAVESMEPNNIVVLLQTSPYHVDSLLQLSDACRFQEDQEMARDLVERALYSMECAFHPLFSLTSGACRLDYRRPENRSFYLALYKQMSFLEKRGCPRTALEYCKLILSLEPDEDPLCMLLLIDHLALRARNYEYLIRLFQEWEAHRNLSQLPNFAFSVPLAYFLLSQQTDLPECEQSSARQKASLLIQQALTMFPGVLLPLLESCSVRPDASVSSHRFFGPNAEISQPPALSQLVNLYLGRSHFLWKEPATMSWLEENVHEVLQAVDAGDPAVEACENRRKVLYQRAPRNIHRHVILSEIKEAVAALPPDVTTQSVMGFDPLPPSDTIYSYVRPERLSPISHGNTIALFFRSLLPNYTMEGERPEEGVAGGLNRNQGLNRLMLAVRDMMANFHLNDLEAPHEDDAEGEGEWD
partner: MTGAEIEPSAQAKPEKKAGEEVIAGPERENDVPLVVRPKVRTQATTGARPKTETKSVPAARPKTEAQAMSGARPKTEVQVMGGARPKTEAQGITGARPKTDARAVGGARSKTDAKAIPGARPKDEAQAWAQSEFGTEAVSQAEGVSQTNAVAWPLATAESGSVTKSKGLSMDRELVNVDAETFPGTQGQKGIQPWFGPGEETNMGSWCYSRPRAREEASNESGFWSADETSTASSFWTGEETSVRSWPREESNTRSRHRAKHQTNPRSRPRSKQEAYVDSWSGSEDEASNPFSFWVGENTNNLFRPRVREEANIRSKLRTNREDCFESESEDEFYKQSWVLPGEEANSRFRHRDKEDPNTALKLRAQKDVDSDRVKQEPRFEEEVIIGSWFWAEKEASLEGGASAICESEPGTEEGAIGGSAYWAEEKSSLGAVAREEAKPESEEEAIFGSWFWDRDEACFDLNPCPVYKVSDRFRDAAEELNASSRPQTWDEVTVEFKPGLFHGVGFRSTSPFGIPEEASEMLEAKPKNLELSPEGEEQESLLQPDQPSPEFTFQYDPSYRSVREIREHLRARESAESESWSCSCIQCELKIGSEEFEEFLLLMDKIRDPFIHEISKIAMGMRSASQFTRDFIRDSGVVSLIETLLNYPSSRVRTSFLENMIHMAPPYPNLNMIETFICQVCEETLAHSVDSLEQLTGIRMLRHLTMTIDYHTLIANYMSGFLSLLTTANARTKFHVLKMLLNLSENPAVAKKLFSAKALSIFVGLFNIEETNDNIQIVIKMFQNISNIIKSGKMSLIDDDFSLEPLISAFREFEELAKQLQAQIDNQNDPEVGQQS
B3: Coiled-coil domain-containing protein 70 (Homo sapiens), Q6NSX1 (parent)
chain: MFSFKVSRWMGLACFRSLAASSPSIRQKKLMHKLQEEKAFREEMKIFREKIEDFREEMWTFRGKIHAFRGQILGFWEEERPFWEEEKTFWKEEKSFWEMEKSFREEEKTFWKKYRTFWKEDKAFWKEDNALWERDRNLLQEDKALWEEEKALWVEERALLEGEKALWEDKTSLWEEENALWEEERAFWMENNGHIAGEQMLEDGPHNANRGQRLLAFSRGRA
partner: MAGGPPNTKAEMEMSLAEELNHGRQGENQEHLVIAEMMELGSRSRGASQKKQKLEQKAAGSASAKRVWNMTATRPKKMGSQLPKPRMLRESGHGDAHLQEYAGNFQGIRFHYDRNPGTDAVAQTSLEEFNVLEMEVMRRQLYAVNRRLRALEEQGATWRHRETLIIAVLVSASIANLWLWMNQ
B4: Ubiquitin-conjugating enzyme E2 E3 (Homo sapiens), Q969T4 (parent)
chain: MSSDRQRSDDESPSTSSGSSDADQRDPAAPEPEEQEERKPSATQQKKNTKLSSKTTAKLSTSAKRIQKELAEITLDPPPNCSAGPKGDNIYEWRSTILGPPGSVYEGGVFFLDITFSSDYPFKPPKVTFRTRIYHCNINSQGVICLDILKDNWSPALTISKVLLSICSLLTDCNPADPLVGSIATQYLTNRAEHDRIARQWTKRYAT
partner: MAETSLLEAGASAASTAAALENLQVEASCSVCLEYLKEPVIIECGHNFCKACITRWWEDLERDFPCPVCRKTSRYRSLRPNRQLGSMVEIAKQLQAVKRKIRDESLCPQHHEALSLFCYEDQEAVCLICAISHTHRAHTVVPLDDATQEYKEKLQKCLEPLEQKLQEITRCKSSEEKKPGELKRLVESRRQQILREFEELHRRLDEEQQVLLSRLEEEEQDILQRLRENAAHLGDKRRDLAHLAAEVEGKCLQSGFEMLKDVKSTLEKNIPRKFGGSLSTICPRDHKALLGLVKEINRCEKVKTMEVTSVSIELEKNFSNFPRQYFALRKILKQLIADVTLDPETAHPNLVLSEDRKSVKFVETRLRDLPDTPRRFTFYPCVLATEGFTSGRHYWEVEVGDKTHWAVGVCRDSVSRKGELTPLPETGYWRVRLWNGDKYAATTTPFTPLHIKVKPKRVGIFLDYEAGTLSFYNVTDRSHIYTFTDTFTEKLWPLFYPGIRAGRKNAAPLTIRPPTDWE

Variants of: B1
Settings: with prpk_human TP53RK

| Variant | effect of a mutation on the interaction |
| --- | --- |
| I277T | disrupting interaction strength |

Variants of: B2
Settings: with gasp2_human GPRASP2, Q96D09

| Variant | effect of a mutation on the interaction |
| --- | --- |
| V526A | with no effect |

Variants of: B3
Settings: with fate1_human FATE1, Q969F0

| Variant | effect of a mutation on the interaction |
| --- | --- |
| M200V | with no effect |
| R62Q | with no effect |

Variants of: B4
Settings: with tri39_human TRIM39, Q9HCM9

| Variant | effect of a mutation on the interaction |
| --- | --- |
| S117T | with no effect |
